From publication PMC11551737, “Structural and functional insights into the interaction between the bacteriophage T4 DNA processing proteins gp32 and Dda” (Nucleic Acids Research, 2024) come the findings set out here.

Where a chain is given by its changes, count along the chain named. Names and notes keep the numbering of the source.

The stoichiometry N is a count of units in the complex or per binding partner. For orientation: Kd means the constant that tells how readily two partners part at equilibrium. A low value points to a tighter complex.

In one data set the target is T1, wild-type Dda/dT20 (Enterobacteria phage T4, UniProt P32270).
T1 construct: His-tag; made in house
Type of data set: binding, bacteriophage T4. The note with it: SPR, Biacore T200, 25°C; wild-type Dda/dT20 on NTA chip; average of three experiments. On the technique in general: Surface plasmon resonance follows binding to a sensor surface in real time, without labels.

In data set [1] the target is bacteriophage T4 gp32 single-stranded DNA-binding protein, full length, His-tagged (bacteriophage T4) (UniProt P03695). Briefly: AUC; sedimentation velocity, 20°C, 42 000 rpm; 20 mM Tris pH 7.0, 200 mM NaCl, 0.5 mM EDTA, 5 mM β-mercaptoethanol; gp32 at 11.10 μM.
Data set [2] concerns the target T2, bacteriophage T4 helicase Dda, wild type (bacteriophage T4) (UniProt P32270).
T2 sequence: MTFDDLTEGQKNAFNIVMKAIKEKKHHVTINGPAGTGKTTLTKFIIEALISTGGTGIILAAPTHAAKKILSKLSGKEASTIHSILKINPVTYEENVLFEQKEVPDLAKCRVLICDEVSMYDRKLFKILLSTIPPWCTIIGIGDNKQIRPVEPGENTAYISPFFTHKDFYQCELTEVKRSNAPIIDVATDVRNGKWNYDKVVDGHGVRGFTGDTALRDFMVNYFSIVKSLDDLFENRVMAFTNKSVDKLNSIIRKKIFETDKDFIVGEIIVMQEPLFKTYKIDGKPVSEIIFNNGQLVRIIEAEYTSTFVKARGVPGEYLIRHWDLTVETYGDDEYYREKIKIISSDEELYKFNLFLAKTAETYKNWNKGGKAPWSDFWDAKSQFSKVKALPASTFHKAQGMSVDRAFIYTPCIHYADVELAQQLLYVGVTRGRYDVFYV

Data set [3] deals with T3, gp32 C-terminal peptide 248-270;Dda-K38A (bacteriophage T4;bacteriophage T4, UniProt P03695;P32270 248-270;1-439, |K38A).
T3 sequence 1: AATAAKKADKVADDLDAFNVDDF
T3 sequence 2: T2 sequence with K38A
Kind of data set: crystal structure; 3.53 A; peptide contacts Dda; EMSA: 25 mM HEPES pH 7.5, 5 mM MgCl2, 0.1 mM EDTA, 2 mM 2-mercaptoethanol, 1 mg/ml BSA, 5% glycerol, 10 or 150 mM NaCl, room temperature (gel 4 C); gel filtration: 20 mM Tris-HCl pH 7.0, 200 mM NaCl (50 mM for crystallization), 0.5 mM EDTA, 5 mM 2-mercaptoethanol. The note with it: tags: ;6xHis (stated for SPR); copies: 1;1; single strand.

For data set [4], the target named is T4, bacteriophage T4 helicase Dda, wild type (bacteriophage T4, UniProt P32270 1-439).
T4 chain: T2 sequence
Kind of data set: SPR; wild-type Dda bound to dT20.

Data set [5] addresses T5, gp32 His-tagged;Dda-K38A (bacteriophage T4;bacteriophage T4, UniProt P03695;P32270 1-301;1-439, |K38A).
T5 sequence 1: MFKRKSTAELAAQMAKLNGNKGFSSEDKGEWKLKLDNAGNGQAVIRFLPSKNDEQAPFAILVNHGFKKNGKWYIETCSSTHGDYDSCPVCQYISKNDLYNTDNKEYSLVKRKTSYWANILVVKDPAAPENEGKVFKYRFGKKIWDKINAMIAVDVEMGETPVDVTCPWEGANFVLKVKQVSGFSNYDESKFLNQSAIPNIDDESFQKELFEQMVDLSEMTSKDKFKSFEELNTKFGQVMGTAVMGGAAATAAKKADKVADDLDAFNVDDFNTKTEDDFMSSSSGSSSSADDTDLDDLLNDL
T5 sequence 2: T2 sequence with K38A
Briefly: gel filtration; complex stably formed; EMSA: 25 mM HEPES pH 7.5, 5 mM MgCl2, 0.1 mM EDTA, 2 mM 2-mercaptoethanol, 1 mg/ml BSA, 5% glycerol, 10 or 150 mM NaCl, room temperature (gel 4 C); gel filtration: 20 mM Tris-HCl pH 7.0, 200 mM NaCl (50 mM for crystallization), 0.5 mM EDTA, 5 mM 2-mercaptoethanol. The note with it: protein: recombinant;recombinant; tags: N-terminal 6xHis;6xHis (stated for SPR); copies: 1;1; single strand. On the technique in general: In gel filtration, larger molecules generally elute earlier.

The target of data set [6] is T5, gp32 His-tagged;Dda-K38A. Kind of data set: crystal structure; Zn2+; 6 A crystals, Zn SAD; EMSA: 25 mM HEPES pH 7.5, 5 mM MgCl2, 0.1 mM EDTA, 2 mM 2-mercaptoethanol, 1 mg/ml BSA, 5% glycerol, 10 or 150 mM NaCl, room temperature (gel 4 C); gel filtration: 20 mM Tris-HCl pH 7.0, 200 mM NaCl (50 mM for crystallization), 0.5 mM EDTA, 5 mM 2-mercaptoethanol. The note with it: protein: recombinant;recombinant; tags: N-terminal 6xHis;6xHis (stated for SPR); copies: 1;1; single strand.

In data set [7] the target is T6, gp32 non-His-tagged;Dda-K38A (bacteriophage T4;bacteriophage T4, UniProt P03695;P32270 1-301;1-439, |K38A).
T6 sequence 1: T5 sequence 1
T6 sequence 2: T2 sequence with K38A
Briefly: crystal structure; Zn2+; 4.98 A; 11 nt visible in one complex, 9 nt (Dda only) in the other; EMSA: 25 mM HEPES pH 7.5, 5 mM MgCl2, 0.1 mM EDTA, 2 mM 2-mercaptoethanol, 1 mg/ml BSA, 5% glycerol, 10 or 150 mM NaCl, room temperature (gel 4 C); gel filtration: 20 mM Tris-HCl pH 7.0, 200 mM NaCl (50 mM for crystallization), 0.5 mM EDTA, 5 mM 2-mercaptoethanol. To be noted: protein: recombinant;recombinant; tags: none;6xHis (stated for SPR); copies: 1;1; single strand. (In general: In EMSA bound probe runs differently from free probe, usually more slowly.)

In data set [8] the target is T7, bacteriophage T4 helicase Dda, ATPase deficient mutant K38A (bacteriophage T4, UniProt P32270 1-439, K38A).
T7 construct: Dda, SF1B helicase of bacteriophage T4, active site point mutant K38A; called His-tagged in SPR analysis 1; theoretical mass printed as 52 046 Da; also called Dda-K38A; Dda–K38A
T7 sequence: T2 sequence with K38A
Briefly: SPR; SPR analysis 1: Biacore 3000, 25°C; His-tagged Dda-K38A/dT20 immobilised on an NTA chip by capture-coupling (~5800 RU); peptides injected, 4-fold dilution series, maximum 100 μM; 20 mM Tris-acetate pH 8.0, 150 mM NaCl, 10 mM magnesium acetate, 3 mM potassium glutamate, 1 mM TCEP, 0.05% Tween20, 10% glycerol; steady-state fit, 1:1 model. To be noted: both partners purified.

Data set [9] addresses T8, bacteriophage T4 helicase Dda, wild type (bacteriophage T4, UniProt P32270 1-439).
T8 construct: Dda, SF1B helicase of bacteriophage T4, wild type; also called wild-type Dda
T8 sequence (looked up): T2 sequence
Briefly: SPR; SPR analysis 2: Biacore T200, 25°C; wild-type Dda/dT20 immobilised on an NTA chip as in SPR analysis 1; peptides injected, 2-fold dilution series, 100 μM to 0.78 μM; steady-state analysis. The note with it: both partners purified.

Data set [10] deals with T5, gp32 His-tagged;Dda-K38A. Kind of data set: gel filtration, SDS-PAGE and agarose gel; 200 mM NaCl; EMSA: 25 mM HEPES pH 7.5, 5 mM MgCl2, 0.1 mM EDTA, 2 mM 2-mercaptoethanol, 1 mg/ml BSA, 5% glycerol, 10 or 150 mM NaCl, room temperature (gel 4 C); gel filtration: 20 mM Tris-HCl pH 7.0, 200 mM NaCl (50 mM for crystallization), 0.5 mM EDTA, 5 mM 2-mercaptoethanol. The note with it: protein: recombinant;recombinant; tags: N-terminal 6xHis;6xHis (stated for SPR); copies: 1;1; single strand.

Regarding AATAAKKEDKVADDADAFNVDDF [A255E/L262A], at wild-type Dda/dT20, the Rmax is 196 (+/- 12.6) RU.

As for AATAAKKADKEADDLDAANVDDF [V258E/F265A], the Rmax on wild-type Dda/dT20 was 115 (+/- 5.88) RU.

In data set [1], “bacteriophage T4 gp32 single-stranded DNA-binding protein, full length, His-tagged (from UniProt P03695 1-301) (natural protein)” showed a stoichiometry N of 2.

B1: full-length gp32 variant A255E/L262A (natural protein)
chain: T5 sequence 1 with A255E, L262A
The molecule B1 returned an amplitude of the product formation curve (fluorescein fluorescence) in the Dda-dependent DNA unwinding assay without annealing trap; 375 nM gp32, 25 nM wild-type Dda, 25 nM substrate in [2] of 130000.

B2: full-length gp32 variant V258E/F265A (natural protein)
chain: T5 sequence 1 with V258E, F265A
The molecule B2 registered an amplitude of the product formation curve (fluorescein fluorescence) in the Dda-dependent DNA unwinding assay without annealing trap; 375 nM gp32, 25 nM wild-type Dda, 25 nM substrate in [2] of 87000.

On to TTTTTTTT (ssDNA) [dT8], for which the binding result in data set [3] is given as “binds”.

For the molecule NTKTEDDFMSSSSGSSSSADDTDLDDLLNDL [gp32 C-terminal peptide 271–301], in data set [4], the Kd is 178 µM.

B3: gp32-A (1–254), gp32 that lacks the C-terminal region (domain or fragment)
chain: MFKRKSTAELAAQMAKLNGNKGFSSEDKGEWKLKLDNAGNGQAVIRFLPSKNDEQAPFAILVNHGFKKNGKWYIETCSSTHGDYDSCPVCQYISKNDLYNTDNKEYSLVKRKTSYWANILVVKDPAAPENEGKVFKYRFGKKIWDKINAMIAVDVEMGETPVDVTCPWEGANFVLKVKQVSGFSNYDESKFLNQSAIPNIDDESFQKELFEQMVDLSEMTSKDKFKSFEELNTKFGQVMGTAVMGGAAATAAKK
B3 gave an amplitude of the product formation curve (fluorescein fluorescence) in the Dda-dependent DNA unwinding assay without annealing trap; 375 nM gp32, 25 nM wild-type Dda, 25 nM substrate in [2] of 86000.

On to TTTTTTTTTTTTTTTT (ssDNA) [dT16], for which the binding result with gp32 His-tagged;Dda-K38A [5] was “binds”.

Consider TTTTTTTTTTTTTTTTT (ssDNA) [dT17], for which the binding result (in the data set with gp32 His-tagged;Dda-K38A [6]; in data set [7]) was “binds” each time.

With AATAAKKADKVADDLDAFNVDDFNTKTEDDFMS (peptide, UniProt P03695 248-280, looked up, source: synthetic peptide) [gp32 C-terminal peptide 248–280], the binding result in data set [8] was “binds”.

B4: gp32-B (21–301), gp32 that lacks the N-terminal region (domain or fragment)
chain: KGFSSEDKGEWKLKLDNAGNGQAVIRFLPSKNDEQAPFAILVNHGFKKNGKWYIETCSSTHGDYDSCPVCQYISKNDLYNTDNKEYSLVKRKTSYWANILVVKDPAAPENEGKVFKYRFGKKIWDKINAMIAVDVEMGETPVDVTCPWEGANFVLKVKQVSGFSNYDESKFLNQSAIPNIDDESFQKELFEQMVDLSEMTSKDKFKSFEELNTKFGQVMGTAVMGGAAATAAKKADKVADDLDAFNVDDFNTKTEDDFMSSSSGSSSSADDTDLDDLLNDL
For B4, the amplitude of the product formation curve (fluorescein fluorescence) in the Dda-dependent DNA unwinding assay without annealing trap; 375 nM gp32, 25 nM wild-type Dda, 25 nM substrate in data set [2] was 200000.

B5: gp32 C-terminus peptide encompassing residues 248–270 (peptide)
peptide: AATAAKKADKVADDLDAFNVDDF
notes: also called gp32 C-terminal peptide; source: synthetic peptide
For B5, the binding result in data set [9] is listed as “binds”.

B6: V258E/F265A mutant of gp32 peptide 248–270 (peptide, UniProt P03695 248-270, looked up)
peptide: AATAAKKADKEADDLDAANVDDF
notes: probably a synthetic peptide like those of SPR analysis 1; also called mutant peptide V258E/F265A
The molecule B6 had a Kd in data set [4] of 492 µM. The “fold less binding than the wild-type peptide 248–270” value in [9] is ~10 fold.

B7: A255E/L262A mutant of gp32 peptide 248–270 (peptide, UniProt P03695 248-270, looked up)
peptide: AATAAKKEDKVADDADAFNVDDF
notes: probably a synthetic peptide like those of SPR analysis 1; also called mutant peptide A255E/L262A
Molecule B7 gave a Kd in data set [4] of 504 µM. The “fold less binding than the wild-type peptide 248–270” value in [9] was ~10 fold.

With TTTTTTTTTTTTTTTTTTTT (ssDNA) [dT20], the binding result with gp32 His-tagged;Dda-K38A [10] is “binds”.

On to AATAAKKADKVADDLDAFNVDDFNT (peptide, UniProt P03695 248-272, looked up, source: synthetic peptide) [gp32 C-terminal peptide 248–272], for which the binding result in [8] is given as “binds”.
